The source of these data is publication PMC6294249, “CryoEM reveals how the complement membrane attack complex ruptures lipid bilayers” (Nature Communications, 2018).

For assay [1], the target named is T1, complement C8 alpha chain (human, UniProt P07357 31-584, N-linked glycan at N407).
T1 construct: complement component C8 alpha chain, human; It stood in the assay as one chain of the bought C8 heterotrimer (α, β, γ); also called C8α; source: bought: Complement Technology (as C8)
Nature of the assay: cryo-EM structure; human MAC assembled on DOPC:DOPE liposomes by sequential addition of C5b6, C7, C8 and C9 (molar ratio 1:1:1:18, 1 h at 37 °C, then 4 °C overnight; 20 mM HEPES-NaOH, 150 mM NaCl, pH 7.4), solubilised in Cymal-5, purified by sucrose density centrifugation; open and closed conformations separated by 3D classification. The settings on record: both partners purified.

A further assay has as its target T2, complement C6 (human, UniProt P13671 22-934).
T2 construct: complement component C6, human; 10 domains (TSP1, TSP2, LDL, MACPF, EGF, TSP3, CCP1, CCP2, FIM1, FIM2); It stood in the assay as part of the bought C5b6 complex; FIM1 and FIM2 were left out of the atomic model (weak or no density); source: bought: Complement Technology (as the C5b6 complex)
The assay is described as above. The settings on record: both partners purified.

T1 sequence (P07357 31-584): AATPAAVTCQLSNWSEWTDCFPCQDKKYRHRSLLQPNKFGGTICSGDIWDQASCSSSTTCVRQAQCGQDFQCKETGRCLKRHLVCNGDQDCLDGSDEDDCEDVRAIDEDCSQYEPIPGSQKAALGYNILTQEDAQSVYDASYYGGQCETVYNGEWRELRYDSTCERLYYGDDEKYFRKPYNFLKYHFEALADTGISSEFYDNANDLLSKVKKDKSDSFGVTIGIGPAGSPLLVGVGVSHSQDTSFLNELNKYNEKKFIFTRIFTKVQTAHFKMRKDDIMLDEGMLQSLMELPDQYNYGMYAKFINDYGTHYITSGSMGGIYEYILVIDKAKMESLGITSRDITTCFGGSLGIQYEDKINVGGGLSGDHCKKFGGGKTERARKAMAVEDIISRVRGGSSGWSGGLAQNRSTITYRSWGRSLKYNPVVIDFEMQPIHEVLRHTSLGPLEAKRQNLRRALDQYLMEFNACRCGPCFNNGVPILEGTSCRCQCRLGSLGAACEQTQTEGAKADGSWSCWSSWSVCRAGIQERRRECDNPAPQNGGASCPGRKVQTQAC
T2 sequence (P13671 22-934): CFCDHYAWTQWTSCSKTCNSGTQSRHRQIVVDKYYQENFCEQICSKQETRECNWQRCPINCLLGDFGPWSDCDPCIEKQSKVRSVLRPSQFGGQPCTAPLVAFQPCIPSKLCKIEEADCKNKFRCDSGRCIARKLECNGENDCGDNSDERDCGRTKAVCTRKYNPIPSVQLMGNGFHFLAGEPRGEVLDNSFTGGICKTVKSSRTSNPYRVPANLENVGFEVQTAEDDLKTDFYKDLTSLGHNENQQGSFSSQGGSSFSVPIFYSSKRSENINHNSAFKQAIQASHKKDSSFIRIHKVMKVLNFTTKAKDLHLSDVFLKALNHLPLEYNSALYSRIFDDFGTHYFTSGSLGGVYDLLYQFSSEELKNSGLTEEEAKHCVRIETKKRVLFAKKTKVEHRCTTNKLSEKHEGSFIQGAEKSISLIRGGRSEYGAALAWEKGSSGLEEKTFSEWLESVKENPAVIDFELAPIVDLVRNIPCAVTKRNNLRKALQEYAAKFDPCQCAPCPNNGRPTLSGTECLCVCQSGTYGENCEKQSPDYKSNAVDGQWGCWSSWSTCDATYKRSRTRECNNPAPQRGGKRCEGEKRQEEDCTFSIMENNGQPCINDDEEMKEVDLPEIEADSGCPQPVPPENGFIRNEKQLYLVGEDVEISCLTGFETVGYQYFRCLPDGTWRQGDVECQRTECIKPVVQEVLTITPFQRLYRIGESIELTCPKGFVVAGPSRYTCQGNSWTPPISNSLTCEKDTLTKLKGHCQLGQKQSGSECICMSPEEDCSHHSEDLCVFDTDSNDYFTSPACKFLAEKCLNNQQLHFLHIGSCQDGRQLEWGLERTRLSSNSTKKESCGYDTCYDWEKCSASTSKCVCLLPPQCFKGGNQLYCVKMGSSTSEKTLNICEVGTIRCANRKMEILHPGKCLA

B1: complement C9 (natural protein)
chain: not shown
modifications: N-linked glycans at N215, N256, N394; O-linked glycan at T427
notes: complement component C9, human; The model began from a homology model with C8β as template; source: bought: Complement Technology
For the molecule B1, the binding result (in assay [1]; in the assay with complement C6) was “binds” throughout.
